Laboratory results reported in publication PMC6748660.

Target: full-length mScarlet-tagged tau (2N4R) (human) (UniProt P10636)
Experiment: TIRF microscopy, condensate enrichment assay

## GFP-tagged tau “bonsai” construct (fusion between the N- and C-terminus, lacking the MTBD)
  fold enrichment within mScarlet-2N4R condensates over the lattice: 1.3 fold
